In patent publication US20100158922A1 (NOVIMMUNE S A, published 2010):

T1: recombinant human IFNγ (human, UniProt P01579 24-166, limits assumed)
T1 sequence (looked up): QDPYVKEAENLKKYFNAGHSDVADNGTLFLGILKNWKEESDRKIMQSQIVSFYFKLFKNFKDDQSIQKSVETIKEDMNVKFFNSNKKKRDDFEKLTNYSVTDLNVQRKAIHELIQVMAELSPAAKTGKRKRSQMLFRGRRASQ

T2: recombinant dog IFNγ (dog, UniProt P42161 24-166)
T2 construct: also called rdIFNγ
T2 sequence (looked up): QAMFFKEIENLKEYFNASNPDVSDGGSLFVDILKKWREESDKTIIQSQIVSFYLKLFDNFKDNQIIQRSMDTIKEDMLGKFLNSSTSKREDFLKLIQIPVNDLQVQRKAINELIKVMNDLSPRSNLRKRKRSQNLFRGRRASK

T3: recombinant cat IFNγ (cat, UniProt P46402 24-167)
T3 construct: also called rcIFNγ
T3 sequence (looked up): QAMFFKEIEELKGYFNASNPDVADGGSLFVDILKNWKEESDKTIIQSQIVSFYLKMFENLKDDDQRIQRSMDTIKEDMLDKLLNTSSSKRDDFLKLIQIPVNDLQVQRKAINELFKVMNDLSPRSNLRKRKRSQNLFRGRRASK

T4: native human IFNγ (human, UniProt P01579 24-161, limits assumed)
T4 construct: Native protein in a culture supernatant; also called nhuIFNγ
T4 sequence (looked up): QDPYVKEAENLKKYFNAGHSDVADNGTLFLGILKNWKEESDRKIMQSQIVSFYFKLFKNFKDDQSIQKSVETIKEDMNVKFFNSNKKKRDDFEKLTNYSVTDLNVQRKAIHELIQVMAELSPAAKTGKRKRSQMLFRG

T5: native cynomolgus IFNγ (cynomolgus monkey, UniProt P63309 24-165, limits assumed)
T5 construct: Native protein in a culture supernatant; also called ncyIFNγ
T5 sequence (looked up): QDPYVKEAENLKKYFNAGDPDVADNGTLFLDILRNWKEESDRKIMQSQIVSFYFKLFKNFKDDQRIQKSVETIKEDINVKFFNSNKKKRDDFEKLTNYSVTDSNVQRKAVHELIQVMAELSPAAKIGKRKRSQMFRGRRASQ

T6: recombinant cynomolgus IFNγ (cynomolgus monkey, UniProt P63309 24-165)
T6 construct: also called rcyIFNγ
T6 sequence (looked up): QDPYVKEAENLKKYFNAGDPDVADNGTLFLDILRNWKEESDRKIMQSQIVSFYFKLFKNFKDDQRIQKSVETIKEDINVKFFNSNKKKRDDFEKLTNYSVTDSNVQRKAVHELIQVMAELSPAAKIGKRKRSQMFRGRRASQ


Columns and labels:
recombinant human IFNγ [1] = target: T1, recombinant human IFNγ; experiment: cell-based or functional assay
recombinant dog IFNγ = target: T2, recombinant dog IFNγ; experiment: Sandwich ELISA, IFNγ captured with pre-coated NI-0501
Text: (§1) The IFNγ from each species was detected using a polyclonal antibody specific for the IFNγ in that assay.

recombinant cat IFNγ = target: T3, recombinant cat IFNγ; experiment: as above
Text: as §1

native human IFNγ = target: T4, native human IFNγ; experiment: Binding, cross-reactivity table (Sandwich ELISA)
native cynomolgus IFNγ = target: T5, native cynomolgus IFNγ; experiment: Binding, cross-reactivity table (Sandwich ELISA)
recombinant human IFNγ [2] = target: T1, recombinant human IFNγ; experiment: Binding, cross-reactivity table (Sandwich ELISA)
[3] = target: T6, recombinant cynomolgus IFNγ; experiment: Binding, cross-reactivity table (Sandwich ELISA)

Binder | MHC II Inhibition Cell-Based Assay IC50 (recombinant human IFNγ [1]) [nM] | further results
AD1.3R3P6_F9 IgG (antibody, V domains shown) VH: not shown VL: NFMLTQPHSVSESPGKTVTISCTRSSGSIASNYVQWYQQRPGSAPTIVIYEDNQRPSGVPHRFSGSIDSSSNSASLTISGLKTEDEADYYCQSYEGFGGGTKLTVLG | 0.185 | 
AD1.3R3P5_F8 IgG (antibody, V domains shown) VH: not shown VL: NFMLTQPHSVSESPGKTVTISCTRSSGSIASNYVHWYQQRPGSSPTTVIYEDNRRPSGVPARFSGSIDSSSNSASLTISGLETDDEADYYCQSSDTTYHGGVVFGGGTKLTVLG | 1.53 | 
AC1.4R4P2_C10 IgG (antibody, V domains shown) VH: not shown VL: NFMLTQPHSVSESPGKTVTISCTRSSGTIASNYVQWYQQRPGSSPTTVIYEDNQRPSGVPDRFSGSIDSSSNSASLTISGLKTEDEADYYCQSYDNSNHWVFGGGTKVTVLG | 0.203 | 
AD1.4R4P2_G7 IgG (antibody, V domains shown) VH: not shown VL: NFMLTQPHAVSESPGKTVTISCTGRNGNIASNYVQWYQQRPDSAPTLIIFEDTQRPSGVPTRLSGSIDTSSNSASLIISSLRTEDEADYYCQSSDSNRVLFGGGTKVTVLG | 0.233 | 
AD1.4R4P1_B9 IgG (antibody, V domains shown) VH: not shown VL: NFMLTQPHSVSESPGKTVTISCTRSSGSIVSNYVQWYQQRPGSAPTTVIFDDDQRPSGVPGRFSGSLDSSSNSASLTISGLQTEDEADYYCQSYDSSNVVFGGGTKVTVLG | 0.322 | 
NI-0501 (antibody, V domains shown, It is the back-mutated version of A6; also called A6 back-mutated to germline; back-mutated A6) VH: not shown VL: NFMLTQPHSVSESPGKTVTISCTRSSGSIASNYVQWYQQRPGSSPTTVIYEDNQRPSGVPDRFSGSIDSSSNSASLTISGLKTEDEADYYCQSYDGSNRWMFGGGTKLTVL |  | binding result (recombinant dog IFNγ): no binding; binding result (recombinant cat IFNγ): no binding; binding result (native human IFNγ): binds; binding result (native cynomolgus IFNγ): binds; binding result (recombinant human IFNγ [2]): binds; binding result [3]: binds

More lines, main results first:

MHC II Inhibition Cell-Based Assay IC50 (recombinant human IFNγ [1]) [nM] | Binder | further results
0.041 | AC1.2R3P2_A6 IgG (antibody, V domains shown) VH: not shown VL: NFMLTQPHSVSESPGKTVTISCTRSSGSIVSNYVQWYQQRPGSAPTTVIYEDNRRPSGVPDRFSGSIDSSSNTASLTISGLEAEDEADYYCQSYDGSNRWMFGGGTKLTVLG | 
0.708 | AC1.2R2P2_D8 IgG (antibody, V domains shown) VH: not shown VL: NFMLTQPHSVSESPGKTVTISCTRSSGSIVSNYVQWYQQRPGSSPTTVIYEDNQRPSGVPDRFSGSIDSSSNSASLTISGLKTEDEADYYCQSYDSNNFWVFGGGTKLTVLG | 
